Measurements published in article PMC12000384, “Competition for the nascent leading strand shapes the requirements for PCNA loading in the replisome” (The EMBO Journal, 2025).

B1: Tof1-Csm3 (complex, S. cerevisiae)
chain 1: MSADLQQGTTNAADFSLTVLRARIALLATAIGGPDYTSQIDPPPYKLGDDCLACLKDLKRWFKLVDDQQKRWDVAMAVAEYRILTDDLLPILIDWENKCSLAAKLAKNNPDHEEFRNKAYYDKIALNCLQLLVLMTWPLIVTEQSSSNQITLYGELKKHQLVYKKTILSMESGKVLRAAIRLALDVIKIDRLSRTPRDNMVLKLVLNFFRNVIAIEPGEFTINTKKSMPKKGITSIDTLPPNVSMDDISLNTVISSFHKNKVFGFLLTLTSSLSKEFDQDFINIPLLEIMFYFTKDVNQELLFPRQFETGTHSKVVNKNESSSANNIVTSAGFELSKLLQKEHQMRKNVIKHTSARHSRFGGLLSIQTPDKTRLTVSGSQALVDEKIALQKLDDSKKWNKRIIKKHQSVAAEGLPNSLLNSQTGKAIFFTESNGKHFKEFINNFIDSGFNILLHSVTNYFTTEQDRMVTLEQVEYLLFFAWFVKYQLLRSKIDNSADIKQVSEALKEVTFILVSSLLRSAYDLKNWTVTHAGMIAFNELLNLVSRTKAAQEEDSTDIEFIVSRLFSDERIQLLSNLPKIGSKYSLQFMKSCIELTHSVLKVLEQYSDDKTLVIEGKSRRQKKFNISEGDITKLIEEENVDRDEALDILTSSLRSIEVNFQKVQANYMTEPVIETYINFLERFRELEDDSIKKVFSFFHRVFVQAKEQALLFRFDLIILLREMLSPDGLDRMSRSRKYVSQFSDYFLARLKKRLKKSPAWFVGLLFPPLHNSEVGFYQRYGEYNVLNNESMYAAPASQFKPIPDEEALPPSILLDMKYGVLVSTLLDDGKTELLDQLLKHITHTLDIFKSWLTVNVNAGKETVNPPNEYFTLTGVLNNDPIFKDKDYRALLLLIGYSIPRKINEPCFLPGTVEVSDLTVSCELVKKYLSTPFETPNGLPSSSYLLRVRSEKDSFSHNEQDGWEGDDDYDYNDPYIVPDDQILSKSDAAYFKDLDNNASDKLKGTKFSKGIARSKKKDKRKRRKGEAKTNLPMFGDQDDERPQTVRERHGVFSKEFISDSEDDEDLMNPIFFENETYMRWLLDKNNGQLTEDRYIQFAKFAAERMNNGGVVTGDYTSLFGGSIPSIESIRATESSSFAPDKSLISLASHVASEMSIFDVNNNNNNQLSDDDVNSESRNSLGSSQPSNSQNMFQSEVYSRKESTKRSLEASAADESDEDEEAIRLFGKKSRVVLSQGDSDD
chain 2: MDQDFDSLLLGFNDSDSVQKDPTVPNGLDGSVVDPTIADPTAITARKRRPQVKLTAEKLLSDKGLPYVLKNAHKRIRISSKKNSYDNLSNIIQFYQLWAHELFPKAKFKDFMKICQTVGKTDPVLREYRVSLFRDEMGMSFDVGTRETGQDLERQSPMVEEHVTSAEERPIVADSFAQDKRNVNNVDYDNDEDDDIYHLSYRNRRGRVLDERGNNETVLNNVVPPKEDLDALLKTFRVQGPVGLEENEKKLLLGWLDAHRKMEKGSMTEEDVQLIQSLEEWEMNDIEGQHTHYDLLPGGDEFGVDQDELDAMKEMGF
notes: Tof1, S. cerevisiae; Csm3, S. cerevisiae; source: purified as in Yeeles et al, 2017
B2: Ctf4 (natural protein, S. cerevisiae, UniProt Q01454 1-927, looked up)
chain: MVSVIDKLVFDFGGKTLVSLAPDNNTLCVANKNGLTKILKTNNPEEEPETLDSSKLVSSIKCYSNSHFLMTTMQGDALRYNIDSSQEELLARFALPLRDCCVIHSGKMAVFGGDDLELILLELDDETHKKHAIKIDEQVSQISYNSQMNILAVSMINGKVQIFSLTSTIPNKVHELNDYIVANSYDDTHRDKILSNMMDDIDKDNDNDLSETADPDENNVADPEFCAANRICTRVAWHPKGLHFALPCADDTVKIFSIKGYSLQKTLSTNLSSTKAHFIDLQFDPLRGTYIAAVDLNNKLTVWNWETSEIHYTREFKRKITNIAWKIQADSKTLDLVLGTWSGSIAIVQNLAESVVSNIPDQSVAESSTKHGLFVDSESDLENLEGNDDINKSDKLFSDITQEANAEDVFTQTHDGPSGLSEKRKYNFEDEEDFIDDDDGAGYISGKKPHNEHSYSRVHKTHSFPISLANTGKFRYMPFSPAGTPFGFTDRRYLTMNEVGYVSTVKNSEQYSITVSFFDVGRFREYHFEDLFGYDLCFLNEKGTLFGQSKTGQIQYRPHDSIHSNWTKIIPLQAGERITSVAATPVRVIVGTSLGYFRSFNQFGVPFAVEKTSPIVALTAQNYRVFSVHYSQFHGLSYSLSELGTSSKRYYKRECPLPMSLPNINSDMKKDANLDYYNFNPMGIKSLFFSSYGDPCIFGSDNTLLLLSKWRSPEESKWLPILDSNMEIWKMSGGKETTDIHVWPLALAYDTLNCILVKGKHIWPEFPLPLPSEMEIRMPVFVKSKLLEENKAILNKKNEIGADTEAEEGEEDKEIQIPVSMAAEEEYLRSKVLSELLTDTLENDGEMYGNENEVLAALNGAYDKALLRLFASACSDQNVEKALSLAHELKQDRALTAAVKISERAELPSLVKKINNIREARYEQQLK
notes: Ctf4, S. cerevisiae; source: purified as in Yeeles et al, 2015

Target: T1, CMG (Cdc45-MCM-GINS) helicase (S. cerevisiae, UniProt Q08032 1-650; P29469 1-868; P24279 1-971; P30665 1-933; P29496 1-775; P53091 …)
T1 construct: Cdc45, S. cerevisiae; Mcm2, S. cerevisiae; Mcm3, S. cerevisiae; Mcm4, S. cerevisiae; Mcm5, S. cerevisiae; Mcm6, S. cerevisiae; Mcm7, S. cerevisiae; GINS subunit, S. cerevisiae; 11-subunit helicase; The two strains express the same chains; in yVA94 endogenous Ctf4-2xStrep was depleted on Strep-Tactin resin; also called Ctf4-depleted CMG; wild-type CMG; source: S. cerevisiae, overexpressed, …
Assay: cryo-EM structure; replisome reconstituted on ice on forked DNA with 0.5 mM AMP-PNP from 150 nM CMG (Ctf4-depleted), Pol ε^exo-, Ctf18-RFC, Tof1-Csm3, Ctf4 and Mrc1 in 25 mM HEPES-NaOH pH 7.6, 150 mM NaOAc, 15 mM Mg(OAc)2, 0.5 mM TCEP; 10-30% glycerol gradient with glutaraldehyde and BS3 cross-linking
Details: both partners purified

| Binder | binding result |
| --- | --- |
| B1 | binds |
| B2 | binds |
